Source: publication PMC10776578, “Epstein-Barr virus-driven B cell lymphoma mediated by a direct LMP1-TRAF6 complex” (Nature Communications, 2024)
“Also recorded” adds a separate entry of the source.

Key:
GST-LMP1_181-386 = assay: AlphaScreen PPI, TRAF6 mutants binding to LMP1; parameters: species or system Epstein-Barr virus; TRAF6 binding to LMP1 (AlphaScreen), mean: unit not given here; conditions: for effect of TRAF6 mutation on binding to LMP1 (in words): AlphaScreen PPI; for TRAF6 binding to LMP1 (AlphaScreen), mean / TRAF6 binding to LMP1 (AlphaScreen): Figure 2a; for TRAF6 binding to LMP1 (AlphaScreen), mean: mean of n = 3
Description: (§1) Fig. 2 LMP1 binds to the receptor-interacting surface of TRAF6. a Mutations within the receptor-interacting surface of TRAF6 affect binding to LMP1. The TRAF6 mutants R392A, K469A, F471A, and Y473A were tested LMP1 in AlphaScreen PPI experiments with GST-LMP1_181-386. Data are mean values ± SD of three independent experiments. Statistics: one-way ANOVA. b TRAF6 R392A differentiates between CD40 and LMP1/RANK. AlphaScreen PPI experiments with GST-CD40_216-277. Data are mean values ± SD of three independent experiments. […] AlphaScreen PPI experiments with GST-RANK314-355. Data are mean values ± SD of four independent experiments. Statistics: one-way ANOVA. d TRAF6 mutants that fail to interact with LMP1 in PPI assays are also unable to bind cellular LMP1. HEK293 cells were co-transfected with HA-LMP1 and the indicated Flag-TRAF6 mutants. Flag-TRAF6 was immunoprecipitated (IP) via its Flag-tag and coprecipitated HA-LMP1 was detected on immunoblots by an α-HA antibody. Uncropped blots in Supplementary Fig. 6b. For statistical analysis LMP1 signals were digitalized and quantified (graph). Data are mean values ± SD of three independent experiments. […] TRAF6 recruitment is dependent on amino acids 371 − 386 of LMP1 (small panel). Confocal microscopy images show representative cells of three independent experiments. Quantitative data are mean values ± SD of ten randomly selected cells per transfection of one representative experiment (graph). Scale bars: 10 µm. Statistics: one-way ANOVA. p-values: *p ≤ 0.05, **p ≤ 0.01, ***p ≤ 0.001, ****p ≤ 0.0001. Source data and exact p-values in the Source Data file.
(§2) AlphaScreen experiments were performed in 96- or 384-well plates (Perkin Elmer, OptiPlate). In both assay formats, His-TRAF and GST-LMP1, GST-CD40, or GST-RANK proteins were incubated together in 40 µL of PBS (protein concentrations were calculated to the final reaction volume of 60 µL) supplemented with 0.5% BSA (Sigma, #A7030) and 0.1% Tween-20 (AppliChem, #A4974), for 1 h at room temperature (RT). If not indicated otherwise, standard protein concentrations were 300 nM for His-TRAF proteins and 100 nM for GST-LMP1 proteins. Ni-NTA-acceptor (Perkin Elmer, #6760619 C) and GST-acceptor (Perkin Elmer, # 6765300) beads were added each to a final concentration of 1–4 µg per mL in a final reaction volume of 60 µL and incubated for 1 h at RT in the dark. AlphaScreen PPI signals were measured in a CLARIOstar reader (BMG Labtech GmbH).

GST-CD40_216-277 = assay: AlphaScreen PPI, TRAF6 mutants binding to CD40; parameters: species or system human; TRAF6 binding to CD40 (AlphaScreen), mean: unit not given here; conditions: for effect of TRAF6 mutation on binding to CD40 (in words): AlphaScreen PPI; for TRAF6 binding to CD40 (AlphaScreen), mean / TRAF6 binding to CD40 (AlphaScreen): Figure 2b; for TRAF6 binding to CD40 (AlphaScreen), mean: mean of n = 3
Description: as §1, §2

HA-LMP1 = assay: Confocal immunofluorescence colocalization of Flag-TRAF6 with HA-LMP1 in HeLa cells; type: cell-based, Epstein-Barr virus; conditions: for colocalization with HA-LMP1 (in words): confocal microscopy; for colocalization of TRAF6 with LMP1, mean: mean of ten cells
Description: HeLa cells were seeded onto cover glasses (Thermo Scientific, Menzel) in 24-well plates one day before transfection. Cells were transfected at 50–60% confluency with 50 ng of pCMV-HA-LMP1 plasmids and 100 ng of pRK5-Flag-TRAF6 plasmids, adjusted to a total of 500 ng DNA per sample with pRK5 empty vector, using Lipofectamine 2000 (Thermo Fisher Scientific) according to the manufacturer’s instructions. At 24 h posttransfection, cells were washed once with PBS and fixed with 4% paraformaldehyde (Sigma-Aldrich) for 20 min at RT, followed by permeabilization with 0.3% (v/v) Triton X-100 and blocking with 5% (v/v) FBS in PBS for 1 h at RT. For immunostaining, the cells were incubated overnight with the primary antibodies α-HA (1:1000, clone 16B12, BioLegend) and α-DYKDDDDK (1:1000, clone L5, BioLegend) at 4 °C. The secondary antibodies goat α-mouse Alexa 488 (1:500, cross-adsorbed, Invitrogen, #A-11029) and goat α-rat Alexa 555 (1:500, cross-adsorbed, Invitrogen, #A-21434) were added for 1.5 h at RT. Microscope slides were sealed with cover glasses using Mowiol mounting medium (Sigma-Aldrich). Nuclei were stained with Hoechst 33258 (Sigma-Aldrich). All samples were imaged using a Leica TCS SP5 confocal microscope with 405 nm, 488 nm, 543 nm or 633 nm laser lines, scanning each channel separately under image capture conditions that eliminated channel overlap. For each single experiment, 10 transfected cells positive for both constructs were randomly captured as single-cell images for quantification. The resulting images were then analyzed using the Leica TCS SP5 colocalization analyses application (LAS AF Version 2.7.3.9723). Analysis was performed with default parameters.

[1] = relative to mean wt 100, replicate 1

Row | Molecule | effect of TRAF6 mutation on binding to LMP1 (in words) (GST-LMP1_181-386) | TRAF6 binding to LMP1 (AlphaScreen), mean (GST-LMP1_181-386) | TRAF6 binding to LMP1 (AlphaScreen) (GST-LMP1_181-386; [1]) | TRAF6 binding to LMP1 (AlphaScreen) (GST-LMP1_181-386; replicate 2) | TRAF6 binding to LMP1 (AlphaScreen) (GST-LMP1_181-386; replicate 3) | effect of TRAF6 mutation on binding to CD40 (in words) (GST-CD40_216-277) | TRAF6 binding to CD40 (AlphaScreen), mean (GST-CD40_216-277) | TRAF6 binding to CD40 (AlphaScreen) (GST-CD40_216-277; [1]) | TRAF6 binding to CD40 (AlphaScreen) (GST-CD40_216-277; replicate 2) | TRAF6 binding to CD40 (AlphaScreen) (GST-CD40_216-277; replicate 3) | colocalization with HA-LMP1 (in words) (HA-LMP1) | colocalization of TRAF6 with LMP1, mean (HA-LMP1)
1 | R392A (protein, UniProt Q9Y4K3 1-522, looked up, variant R392A) TNF receptor-associated …: MSLLNCENSCGSSQSESDCCVAMASSCSAVTKDDSVGGTASTGNLSSSFMEEIQGYDVEFDPPLESKYECPICLMALREAVQTPCGHRFCKACIIKSIRDAGHKCPVDNEILLENQLFPDNFAKREILSLMVKCPNEGCLHKMELRHLEDHQAHCEFALMDCPQCQRPFQKFHINIHILKDCPRRQVSCDNCAASMAFEDKEIHDQNCPLANVICEYCNTILIREQMPNHYDLDCPTAPIPCTFSTFGCHEKMQRNHLARHLQENTQSHMRMLAQAVHSLSVIPDSGYISEVRNFQETIHQLEGRLVRQDHQIRELTAKMETQSMYVSELKRTIRTLEDKVAEIEAQQCNGIYIWKIGNFGMHLKCQEEEKPVVIHSPGFYTGKPGYKLCMALHLQLPTAQRCANYISLFVHTMQGEYDSHLPWPFQGTIRLTILDQSEAPVRQNHEEIMDAKPELLAFQRPTIPRNPKGFGYVTFMHLEALRQRTFIKDDTLLVRCEVSTRFDMGSLRREGFQPRSTDAGV | prevented the interaction of TRAF6 with LMP1 and RANK | 4.615 | 2.0 | 6.0 | 5.9 | no impact on TRAF6 binding to CD40 | 85.62 | 56.3 | 84.0 | 116.7 | fail to interact with LMP1 wild-type clusters; also recorded: strongly decreased colocalization with HA-LMP1 | 16.72
2 | F471A (protein, UniProt Q9Y4K3 1-522, looked up, variant F471A) TNF receptor-associated …: MSLLNCENSCGSSQSESDCCVAMASSCSAVTKDDSVGGTASTGNLSSSFMEEIQGYDVEFDPPLESKYECPICLMALREAVQTPCGHRFCKACIIKSIRDAGHKCPVDNEILLENQLFPDNFAKREILSLMVKCPNEGCLHKMELRHLEDHQAHCEFALMDCPQCQRPFQKFHINIHILKDCPRRQVSCDNCAASMAFEDKEIHDQNCPLANVICEYCNTILIREQMPNHYDLDCPTAPIPCTFSTFGCHEKMQRNHLARHLQENTQSHMRMLAQAVHSLSVIPDSGYISEVRNFQETIHQLEGRLVRQDHQIRELTAKMETQSMYVSELKRTIRTLEDKVAEIEAQQCNGIYIWKIGNFGMHLKCQEEEKPVVIHSPGFYTGKPGYKLCMRLHLQLPTAQRCANYISLFVHTMQGEYDSHLPWPFQGTIRLTILDQSEAPVRQNHEEIMDAKPELLAFQRPTIPRNPKGAGYVTFMHLEALRQRTFIKDDTLLVRCEVSTRFDMGSLRREGFQPRSTDAGV | complete loss of TRAF6 binding | 5.785 | 2.7 | 7.8 | 6.8 | complete loss of TRAF6 binding | 0.6069 | 0.8 | 0.43 | 0.6 | fail to interact with LMP1 wild-type clusters; also recorded: strongly decreased colocalization with HA-LMP1 | 13.45
3 | Y473A (protein, UniProt Q9Y4K3 1-522, looked up, variant Y473A) TNF receptor-associated …: MSLLNCENSCGSSQSESDCCVAMASSCSAVTKDDSVGGTASTGNLSSSFMEEIQGYDVEFDPPLESKYECPICLMALREAVQTPCGHRFCKACIIKSIRDAGHKCPVDNEILLENQLFPDNFAKREILSLMVKCPNEGCLHKMELRHLEDHQAHCEFALMDCPQCQRPFQKFHINIHILKDCPRRQVSCDNCAASMAFEDKEIHDQNCPLANVICEYCNTILIREQMPNHYDLDCPTAPIPCTFSTFGCHEKMQRNHLARHLQENTQSHMRMLAQAVHSLSVIPDSGYISEVRNFQETIHQLEGRLVRQDHQIRELTAKMETQSMYVSELKRTIRTLEDKVAEIEAQQCNGIYIWKIGNFGMHLKCQEEEKPVVIHSPGFYTGKPGYKLCMRLHLQLPTAQRCANYISLFVHTMQGEYDSHLPWPFQGTIRLTILDQSEAPVRQNHEEIMDAKPELLAFQRPTIPRNPKGFGAVTFMHLEALRQRTFIKDDTLLVRCEVSTRFDMGSLRREGFQPRSTDAGV | complete loss of TRAF6 binding | 1.355 | 0.9 | 1.6 | 1.5 | complete loss of TRAF6 binding | 0.5871 | 0.7 | 0.5 | 0.5 | fail to interact with LMP1 wild-type clusters; also recorded: strongly decreased colocalization with HA-LMP1 | 24.45
